According to the supplement of paper PMC9170038:

Tests used:
[1] = test system: MS2 coat protein; experiment: apparent KD of MS2 coat protein; higher = weaker reporter binding; conditions: Eterna round: R101
Procedure: (§1)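 RNA-MaP: designed FMN/MS2 RNA switches (84 nt design region) are transcribed on-chip within common flanks and titrated with SNAP-549-labelled MS2 coat protein (about 1-3000 nM) in 100 mM Tris pH 7.5, 80 mM KCl, 4 mM MgCl2, without or with 200 uM FMN. Median apparent KD per design; activation ratio = KD,OFF / KD,ON.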

[2] = test system: MS2 coat protein; experiment: apparent KD of MS2 coat protein; designed switch direction (-1 OFF switch, 1 ON switch): 1; higher = weaker reporter binding; conditions: Eterna round: R98
Procedure: as §1

| Sequence | apparent KD of MS2 coat protein ([1]; input ligand: FMN 200 uM) | apparent KD of MS2 coat protein ([2]; input ligand: FMN 200 uM) | apparent KD of MS2 coat protein ([2]; input ligand: none) | apparent KD of MS2 coat protein ([1]; input ligand: none) |
| --- | --- | --- | --- | --- |
| CCUGCACCUCAAGGAUAUCCAGUCGAAACGACUGGAGAAGGUGAGGAUCACCCACCUAGCCUGACGAAAGUCAGGCAUGCAGGA [#SharedSequence - ExNG1-1] (puzzle (switch architecture): Exclusion NG 1) | 32.8 nM |  |  |  |
| AGAACAUGAGGAUCACCCAUGUGAAGGUCGGCGUAUAAGGGUGAGGAUAUGCUUAAAAUAAGGAAGCAGAAGGUACUUGGUGCG [SameState #80 NG3] |  | 75.3 nM | 165 nM |  |
| GGACGUCACAUAAACAUGAGGAUCACCCAUGUCAAAAGACAUGAGGAUAUGGAUGCGAAACGCAUCCAGAAGGCAUGGACGUCC [EliMod 4 - Jieux - Same State NG 3] |  | 57.3 nM | 728 nM |  |
| GUAGCUAUCGCAGGAUAUCCUCAGGCGAAAGCCACAUGAGGAUCACCCAUGUAAAUAAAGAAUUUGGAGAAGGGCGAUAGCUAC [jl-sng2-2.34 Eli mod] |  | 24.7 nM | 374 nM |  |
| GGACAUGUCGUUUACAUGAGGAUCACCCAUGUCGAUGGACAUGAGGAUAUGGAUCCGAAUCGGAUCCAGAAGGCAUGCAUGUCC [SameState #7 NG3] |  | 17.9 nM | 45.2 nM |  |
| UAUAAUCUUUAAGGAUAUGACUCCGUUUCGGAGUCAGAAGGUGAGGAUCACCCACCUAGCUCAGGGUCGUUUGACCCUGAGCAU [#AddUracilToBrourdLoops 9 - Jieux - Exclusion NG1] (puzzle (switch architecture): Exclusion NG 1) | 10.6 nM |  |  | 8.87 nM |
| GGUCGUCACAUAUACAUGAGGAUCACCCAUGUCAAAAGACAUGAGGAUAUGGAUCCUAAUUGGAUCCAGAAGGCAUGGACGACC [#HiddenHairpinInALoop - Mat - Same State NG 3 - JL Mod - D11] (puzzle (switch architecture): Same State NG 3) | 21.4 nM |  |  | 412 nM |
| ACUGUCGCGUGAGGAUAUGGUCUGCAGUGCUGACCAGAAGGCAUGUCGAUAGACAUGAGGAUCACCCAUGUGGUUAGGGCGGAA [salish99_SSNG1_R02_019] |  | 194 nM | 298 nM |  |
| GGUUUCAGGAUAGGAUAUGGCGUGACAUGGCGGCCAGAAGGAUCCUCGGGAACAUGAGGAUCACCCAUGUGACCGUGUCGAGUC [Biveedve] |  | 190 nM | 741 nM |  |
| AAAACAUGAGGAUCACCCAUGUAAAGAUCGGUUAAUAGAAGUGAGGAUAUGCUUAAAAUAAGGUAGCAGAAGGCACUGGGUACA [JR_SSNG3_Sub040] |  | 27.8 nM | 23.4 nM |  |
| AAAACAUGAGGAUCACCCAUGUAUUGAACGGUUAAUAAAAGUGAGGAUAUACAAAAUUUUAUAUAGUAGAAGGCACUGGGUACA [JR_SSNG3_Sub009] |  | 20.8 nM | 21.2 nM |  |
| AAAUAAAAUAUAGGAUAUGGAAACAUGAGGAUCACCCAUGUAUGAUAAGAUAAAUAAUGAUAUAGCCAGAAGGAUAAAAUAUAA [LRO006_SS NG 2] |  | 42.7 nM | 33 nM |  |
| AAAACAUGAGGAUCACCCAUGUAAAGAUCGGUUAAUAGAAGUGAGGAUAUACAAAAUUUUAGGUAGUAGAAGGCACAGGGUACA [JR_SSNG3_Sub046] |  | 31.5 nM | 33 nM |  |
| GCAUACAUUCGAGGAUAUCGGUGAACAAAUUAGCGAGAAGGCGAUAUAAUUUUUAAACUUAUUGACAUGAGGAUCACCCAUGUA [JR_SSNG1_Sub011] |  | 20.5 nM | 24.8 nM |  |
| GGACUCACUUGAGGAUAUCGAGUGGAUAACACUCGAGAAGGCAGGGAAACCUGAGGAUCACCCAGGUAAGAGUCCAAUAAUAAA [Same State NG1 - A3C, U17G Submission 2D] |  | 19.9 nM | 42.1 nM |  |
| UAGAAGUGGUGAGGAUAUGAAUACGGCUCAUUAUCCUACAUGAGGAUCACCCAUGUGGGUGGUCGUCAGAAGGCACUGCUAUCG [Edretirige] |  | 181 nM | 32.3 nM |  |
| UAGAUCACCGAAGGAUAUGGGCAGAGUCCCGCUACAUGAGGAUCACCCAUGUCAGUCGGUCGUUUUCAGAAGGUCGGAAUGAUU [Zadi] |  | 57.1 nM | 19.4 nM |  |
| UCACUCAAGUUAGGAUAUGGAUCGGAAAACGAUCCAGAAGGAACAUGAAAACAUGAGCAUCAGCCAUGUUCCAGAAACGAGUGA [SameSame 4 - Jieux - Same State NG 1] |  | 23.6 nM |  |  |
| GUAGCAUACCGAGGAUAUUCUCCGGAAAACCGGACAUGAGGAUCACCCAUGUGGCGAAAGCCUUGGGAGAAGGCGGAAUGCUAC [Xeinanis 75 29] |  | 18.6 nM | 34.4 nM |  |
| UUACGUCCCGUUUACAUGAGGAUCACCCAUGUCGAAAGACAUGAGGAUAUGCUACCUAGUUGGUAGCAGAAGGCGUGGACGUCG [salish99_SSNG3_r02_005] |  | 87.1 nM | 121 nM |  |
